Three molecules from patent US20240003880A1 (TRUSTEES OF COLUMBIA UNIVERSITY IN THE CITY OF NEW YORK, published 2024) can be followed below.

The target of test [1] is T1, SARS-CoV-2 nucleocapsid phosphoprotein (SARS-CoV-2, UniProt P0DTC9 1-419). In words: ELISA (FIG. 3). A general note: ELISA stands for enzyme-linked immunosorbent assay.
Test [2] deals with T1, SARS-CoV-2 nucleocapsid phosphoprotein. In words: Western blot on NP denatured with DTT and heat (FIG. 4).

B1: antibody 9-8 (antibody, V domains shown)
VH: EVQLVESGGGLVQPGGSLRLSCAASGFTFSTYWMSWVRQAPGKGLEWVANIKQDGSEKYYVDSVKGRFTISRDNAKNSLYLQMNSLRAEDTAVYYCARYSLDYYDTSGSFDYWGQGTLVAVSS
VL: SYELTQPPSVSVSPGQTARITCSGDALPKKYAYWYQQKSGQAPVLVIYEDSKRPSGIPERFSGSSSGTMATLTISGAQVEDEADYYCYSTDSSGNHRGVFGGGTQLTVL
Regarding B1, the binding result in test [1] is listed as “binds”.

B2: antibody 9-29 (antibody, V domains shown)
VH: EVQLVQSGAEVKKSGESLKISCKGSGYSFTNYWIGWVRQMPGKGLEWMGIIYPGDSDTRHSPSFQGQVTISADKSLRTAYLQWSSLKASDTAIYYCARGADGYSSYFDYWGQGTLVTVSS
VL: NFMLTQPHSVSESPGKTVIISCTRSSGSIASDYVQWYQQRPGSVPTTVIYEDNERPSGVPDRFSGSIDSSSNSASLTISGLKTEDEADYYCQSYDSSVQVFGGGTKLTVL
As to B2, in test [2], the binding result is recorded as “binds”.

B3: antibody 9-9 (antibody, V domains shown)
VH: EVQLVESGGGLVQPGGSLRLSCAASGFIFSNYWMSWVRQAPGKGLEWVANTKQDDSEKYYVDAVKGRFTISRDNAKNSLYLQMNSLRADDTAVYYCAREVRIAVTGTSRDEDYSYNGMDVWGQGTTVTVSS
VL: SYELTQPPSVSVSPGQTARITCSADALAKQYAYWYQQKPGQAPVLVIFKDSERPSGIPERFSGSSSGTTVTLTISRVQAEDEADYYCQSADSSGYYWAFGGGTKLTVL
As to B3, the binding result in test [2] is “binds”.
